From patent US20130315910A1 (Xencor, published 2013)

T1: human FcγRIIa (131H), His- and GST-tagged (human, UniProt P12318 34-217)
T1 construct: also called H131 FcγRIIa; HIIa; not shown: 6xHis and GST tags of the pTT5 vector
T1 sequence (looked up): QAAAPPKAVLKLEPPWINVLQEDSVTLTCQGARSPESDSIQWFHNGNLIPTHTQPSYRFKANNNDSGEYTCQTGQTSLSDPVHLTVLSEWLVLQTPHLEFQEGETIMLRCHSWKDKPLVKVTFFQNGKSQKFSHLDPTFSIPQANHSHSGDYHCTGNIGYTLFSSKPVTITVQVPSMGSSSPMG

T2: human FcγRIIa (131R), His- and GST-tagged (human, UniProt P12318 34-217)
T2 construct: Expressed in HEK293T cells, purified by nickel chromatography; also called R131 FcγRIIa; not shown: 6xHis and GST tags of the pTT5 vector
T2 sequence (looked up): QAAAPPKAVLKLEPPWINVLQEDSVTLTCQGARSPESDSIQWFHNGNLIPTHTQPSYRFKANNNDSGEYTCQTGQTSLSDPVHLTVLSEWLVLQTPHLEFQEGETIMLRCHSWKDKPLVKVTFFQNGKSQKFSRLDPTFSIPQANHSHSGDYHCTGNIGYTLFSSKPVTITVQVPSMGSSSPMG

T3: human FcγRIIb receptor protein (R&D Systems) (human, UniProt P31994 46-217)
T3 construct: Bought protein injected over captured antibody in Biacore; also called CD32b
T3 sequence (looked up): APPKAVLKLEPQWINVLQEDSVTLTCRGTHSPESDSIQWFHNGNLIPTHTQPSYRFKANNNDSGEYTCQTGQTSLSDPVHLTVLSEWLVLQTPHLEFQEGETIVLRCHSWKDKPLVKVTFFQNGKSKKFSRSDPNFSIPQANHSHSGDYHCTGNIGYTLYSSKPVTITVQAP

T4: cynoFcγRIIb (Macaca fascicularis, UniProt A0A140HDP4)
T4 construct: extracellular region, C-terminal His- and GST-tag; also called cynomolgus monkey FcγRIIb
T4 sequence (receptor extracellular region): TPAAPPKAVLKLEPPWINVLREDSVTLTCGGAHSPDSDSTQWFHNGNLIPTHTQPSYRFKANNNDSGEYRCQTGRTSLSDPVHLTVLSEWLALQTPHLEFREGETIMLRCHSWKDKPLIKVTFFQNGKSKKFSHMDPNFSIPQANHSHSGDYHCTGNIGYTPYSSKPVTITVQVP

T5: mFcγRIIb (Mus musculus, UniProt P08101)
T5 construct: extracellular region, C-terminal His- and GST-tag; also called mouse FcγRII
T5 sequence (receptor extracellular region, looked up): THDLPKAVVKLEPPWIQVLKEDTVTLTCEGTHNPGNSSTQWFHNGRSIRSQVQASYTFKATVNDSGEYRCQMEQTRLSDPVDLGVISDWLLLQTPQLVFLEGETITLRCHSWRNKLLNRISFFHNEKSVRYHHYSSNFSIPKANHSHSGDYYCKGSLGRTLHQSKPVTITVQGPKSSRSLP


Experiments:
Test in all cases: SPR
[1] = molecular target: T6, human FcγRIIIa (158V), His- and GST-tagged (human, UniProt P08637 17-208)
T6 construct: also called V158 FcγRIIIa; VIIIa; not shown: 6xHis and GST tags of the pTT5 vector

[2] = molecular target: T7, human FcγRI receptor protein (R&D Systems) (human, UniProt P12314 16-288)
T7 construct: also called soluble FcγRI; solFcγRI

[3] = molecular target: T1, human FcγRIIa (131H), His- and …
[4] = molecular target: T2, human FcγRIIa (131R), His- and …
[5] = molecular target: T3, human FcγRIIb receptor protein (R&D …)
cynoFcγRIIIa = molecular target: T8, cynoFcγRIIIa (Macaca fascicularis, UniProt Q8SPW2)
T8 construct: extracellular region, C-terminal His- and GST-tag; also called cynomolgus monkey FcγRIIIa

cynoFcγRIIb = molecular target: T4, cynoFcγRIIb
mFcγRIIb = molecular target: T5, mFcγRIIb
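For Fold vs WT IgG1 (off-rate) in this document: fold improvement over WT IgG1 so higher means slower dissociation than WT.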

T7 sequence (P12314 16-288 limits assumed): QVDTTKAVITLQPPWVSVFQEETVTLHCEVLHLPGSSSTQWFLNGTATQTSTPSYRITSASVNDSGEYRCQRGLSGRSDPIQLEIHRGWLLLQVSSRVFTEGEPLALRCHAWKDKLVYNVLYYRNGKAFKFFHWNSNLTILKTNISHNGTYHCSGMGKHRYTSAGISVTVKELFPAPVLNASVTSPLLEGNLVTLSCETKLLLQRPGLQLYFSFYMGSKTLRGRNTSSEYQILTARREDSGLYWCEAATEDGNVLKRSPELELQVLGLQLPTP
T6 sequence (P08637 17-208 F176V): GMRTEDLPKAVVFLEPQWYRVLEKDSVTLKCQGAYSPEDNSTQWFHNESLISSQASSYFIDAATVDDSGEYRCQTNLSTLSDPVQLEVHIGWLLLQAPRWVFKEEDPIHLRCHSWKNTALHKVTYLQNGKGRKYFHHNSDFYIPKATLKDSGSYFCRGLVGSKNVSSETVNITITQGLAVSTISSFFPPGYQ
T8 sequence (Q8SPW2 17-208): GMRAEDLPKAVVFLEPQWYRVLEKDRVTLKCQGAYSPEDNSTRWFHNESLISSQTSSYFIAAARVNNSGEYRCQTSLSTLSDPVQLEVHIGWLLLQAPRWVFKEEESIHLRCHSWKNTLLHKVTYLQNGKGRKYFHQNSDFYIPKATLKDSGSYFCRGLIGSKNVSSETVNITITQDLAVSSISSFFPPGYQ

Binder | Fold vs WT IgG1 [1] [fold] | Kd [1] [nM] | Fold vs WT IgG1 [2] [fold] | Kd [2] [nM] | Fold vs WT IgG1 [3] [fold] | Kd [3] [nM] | Fold vs WT IgG1 [4] [fold] | Kd [4] [nM] | Fold vs WT IgG1 [5] [fold] | Kd [5] [nM] | Fold vs WT IgG1 (Kd) (cynoFcγRIIIa) [fold] | Fold vs WT IgG1 (Kd) (cynoFcγRIIb) [fold] | Fold vs WT IgG1 (off-rate) (cynoFcγRIIb) [fold] | Fold vs WT IgG1 (off-rate) (mFcγRIIb) [fold] | binding result [1]
G236S (antibody, human IgG1, kappa, HuAM4G7 anti-CD19 IgG1 (m1) with this Fc substitution, EU index; copies: 2 + 2) heavy: not shown light: DIVMTQSPATLSLSPGERATLSCRSSKSLQNVNGNTYLYWFQQKPGQSPQLLIYRMSNLNSGVPDRFSGSGSGTEFTLTISSLEPEDFAVYYCMQHLEYPITFGAGTKLEIKRTVAAPSVFIFPPSDEQLKSGTASVVCLLNNFYPREAKVQWKVDNALQSGNSQESVTEQDSKDSTYSLSSTLTLSKADYEKHKVYACEVTHQGLSSPVTKSFNRGEC | 0.00367 | 52200 | 0.0268 | 12.3 | 3.76 | 172 | 2.33 | 369 | 1.02 | 1440 | 1.45 | 3.55 |  |  | 
L235Y/S239D/S267E (antibody, human IgG1, kappa, HuAM4G7 anti-CD19 IgG1 (m1) with these Fc substitutions, EU index; copies: 2 + 2) heavy: EVQLVESGGGLVKPGGSLKLSCAASGYTFTSYVMHWVRQAPGKGLEWIGYINPYNDGTKYNEKFQGRVTISSDKSISTAYMELSSLRSEDTAMYYCARGTYYYGTRVFDYWGQGTLVTVSSASTKGPSVFPLAPSSKSTSGGTAALGCLVKDYFPEPVTVSWNSGALTSGVHTFPAVLQSSGLYSLSSVVTVPSSSLGTQTYICNVNHKPSNTKVDKKVEPKSCDKTHTCPPCPAPELYGGPDVFLFPPKPKDTLMISRTPEVTCVVVDVEHEDPEVKFNWYVDGVEVHNAKTKPREEQYNSTYRVVSVLTVLHQDWLNGKEYKCKVSNKALPAPIEKTISKAKGQPREPQVYTLPPSREEMTKNQVSLTCLVKGFYPSDIAVEWESNGQPENNYKTTPPVLDSDGSFFLYSKLTVDKSRWQQGNVFSCSVMHEALHNHYTQKSLSLSPGK light: DIVMTQSPATLSLSPGERATLSCRSSKSLQNVNGNTYLYWFQQKPGQSPQLLIYRMSNLNSGVPDRFSGSGSGTEFTLTISSLEPEDFAVYYCMQHLEYPITFGAGTKLEIKRTVAAPSVFIFPPSDEQLKSGTASVVCLLNNFYPREAKVQWKVDNALQSGNSQESVTEQDSKDSTYSLSSTLTLSKADYEKHKVYACEVTHQGLSSPVTKSFNRGEC | 2.6 | 73.5 | 1.07 | 0.307 | 1.05 | 617 | 98.9 | 8.68 | 116 | 12.6 |  |  |  |  | 
L235Y/S267E/L328F (antibody, human IgG1, kappa, HuAM4G7 anti-CD19 IgG1 (m1) with these Fc substitutions, EU index; copies: 2 + 2) heavy: EVQLVESGGGLVKPGGSLKLSCAASGYTFTSYVMHWVRQAPGKGLEWIGYINPYNDGTKYNEKFQGRVTISSDKSISTAYMELSSLRSEDTAMYYCARGTYYYGTRVFDYWGQGTLVTVSSASTKGPSVFPLAPSSKSTSGGTAALGCLVKDYFPEPVTVSWNSGALTSGVHTFPAVLQSSGLYSLSSVVTVPSSSLGTQTYICNVNHKPSNTKVDKKVEPKSCDKTHTCPPCPAPELYGGPSVFLFPPKPKDTLMISRTPEVTCVVVDVEHEDPEVKFNWYVDGVEVHNAKTKPREEQYNSTYRVVSVLTVLHQDWLNGKEYKCKVSNKAFPAPIEKTISKAKGQPREPQVYTLPPSREEMTKNQVSLTCLVKGFYPSDIAVEWESNGQPENNYKTTPPVLDSDGSFFLYSKLTVDKSRWQQGNVFSCSVMHEALHNHYTQKSLSLSPGK light: DIVMTQSPATLSLSPGERATLSCRSSKSLQNVNGNTYLYWFQQKPGQSPQLLIYRMSNLNSGVPDRFSGSGSGTEFTLTISSLEPEDFAVYYCMQHLEYPITFGAGTKLEIKRTVAAPSVFIFPPSDEQLKSGTASVVCLLNNFYPREAKVQWKVDNALQSGNSQESVTEQDSKDSTYSLSSTLTLSKADYEKHKVYACEVTHQGLSSPVTKSFNRGEC |  |  | 0.00436 | 75.5 | 0.758 | 853 | 171 | 5.02 | 187 | 7.83 |  |  |  |  | no binding
L235Y/S267E/H268E (antibody, human IgG1, kappa, HuAM4G7 anti-CD19 IgG1 (m1) with these Fc substitutions, EU index; copies: 2 + 2) heavy: EVQLVESGGGLVKPGGSLKLSCAASGYTFTSYVMHWVRQAPGKGLEWIGYINPYNDGTKYNEKFQGRVTISSDKSISTAYMELSSLRSEDTAMYYCARGTYYYGTRVFDYWGQGTLVTVSSASTKGPSVFPLAPSSKSTSGGTAALGCLVKDYFPEPVTVSWNSGALTSGVHTFPAVLQSSGLYSLSSVVTVPSSSLGTQTYICNVNHKPSNTKVDKKVEPKSCDKTHTCPPCPAPELYGGPSVFLFPPKPKDTLMISRTPEVTCVVVDVEEEDPEVKFNWYVDGVEVHNAKTKPREEQYNSTYRVVSVLTVLHQDWLNGKEYKCKVSNKALPAPIEKTISKAKGQPREPQVYTLPPSREEMTKNQVSLTCLVKGFYPSDIAVEWESNGQPENNYKTTPPVLDSDGSFFLYSKLTVDKSRWQQGNVFSCSVMHEALHNHYTQKSLSLSPGK light: DIVMTQSPATLSLSPGERATLSCRSSKSLQNVNGNTYLYWFQQKPGQSPQLLIYRMSNLNSGVPDRFSGSGSGTEFTLTISSLEPEDFAVYYCMQHLEYPITFGAGTKLEIKRTVAAPSVFIFPPSDEQLKSGTASVVCLLNNFYPREAKVQWKVDNALQSGNSQESVTEQDSKDSTYSLSSTLTLSKADYEKHKVYACEVTHQGLSSPVTKSFNRGEC | 0.428 | 447 | 0.0103 | 32.1 | 0.157 | 4130 | 48.2 | 17.8 | 69.9 | 21 |  |  |  |  | 

These reach a lower Kd [2]. Values come first.

Fold vs WT IgG1 [1] [fold] | Kd [1] [nM] | Fold vs WT IgG1 [2] [fold] | Kd [2] [nM] | Fold vs WT IgG1 [3] [fold] | Kd [3] [nM] | Fold vs WT IgG1 [4] [fold] | Kd [4] [nM] | Fold vs WT IgG1 [5] [fold] | Kd [5] [nM] | Fold vs WT IgG1 (Kd) (cynoFcγRIIIa) [fold] | Fold vs WT IgG1 (Kd) (cynoFcγRIIb) [fold] | Fold vs WT IgG1 (off-rate) (cynoFcγRIIb) [fold] | Fold vs WT IgG1 (off-rate) (mFcγRIIb) [fold] | binding result [1] | Binder
0.00199 | 96300 | 1.66 | 0.198 |  |  | 16.7 | 51.3 | 21.2 | 69.1 |  |  | 0.697 | 0.971 |  | S267E/A327D (antibody, human IgG1, kappa, HuAM4G7 anti-CD19 IgG1 (m1) with these Fc substitutions, EU index; copies: 2 + 2) heavy: not shown light: DIVMTQSPATLSLSPGERATLSCRSSKSLQNVNGNTYLYWFQQKPGQSPQLLIYRMSNLNSGVPDRFSGSGSGTEFTLTISSLEPEDFAVYYCMQHLEYPITFGAGTKLEIKRTVAAPSVFIFPPSDEQLKSGTASVVCLLNNFYPREAKVQWKVDNALQSGNSQESVTEQDSKDSTYSLSSTLTLSKADYEKHKVYACEVTHQGLSSPVTKSFNRGEC
0.216 | 887 | 1.45 | 0.227 | 1.71 | 378 | 416 | 2.06 | 428 | 3.43 | 1.17 | 4.58 |  |  |  | S239D/S267E/L328F (antibody, human IgG1, kappa, HuAM4G7 anti-CD19 IgG1 (m1) with these Fc substitutions, EU index; copies: 2 + 2) heavy: EVQLVESGGGLVKPGGSLKLSCAASGYTFTSYVMHWVRQAPGKGLEWIGYINPYNDGTKYNEKFQGRVTISSDKSISTAYMELSSLRSEDTAMYYCARGTYYYGTRVFDYWGQGTLVTVSSASTKGPSVFPLAPSSKSTSGGTAALGCLVKDYFPEPVTVSWNSGALTSGVHTFPAVLQSSGLYSLSSVVTVPSSSLGTQTYICNVNHKPSNTKVDKKVEPKSCDKTHTCPPCPAPELLGGPDVFLFPPKPKDTLMISRTPEVTCVVVDVEHEDPEVKFNWYVDGVEVHNAKTKPREEQYNSTYRVVSVLTVLHQDWLNGKEYKCKVSNKAFPAPIEKTISKAKGQPREPQVYTLPPSREEMTKNQVSLTCLVKGFYPSDIAVEWESNGQPENNYKTTPPVLDSDGSFFLYSKLTVDKSRWQQGNVFSCSVMHEALHNHYTQKSLSLSPGK light: DIVMTQSPATLSLSPGERATLSCRSSKSLQNVNGNTYLYWFQQKPGQSPQLLIYRMSNLNSGVPDRFSGSGSGTEFTLTISSLEPEDFAVYYCMQHLEYPITFGAGTKLEIKRTVAAPSVFIFPPSDEQLKSGTASVVCLLNNFYPREAKVQWKVDNALQSGNSQESVTEQDSKDSTYSLSSTLTLSKADYEKHKVYACEVTHQGLSSPVTKSFNRGEC
